Data: patent US20260209789A1, “TRIGGER-INDUCIBLE MRNA CIRCULARIZATION” (WESTLAKE UNIVERSITY, priority 2022, published 2026)

Tested on: N2A, Hepa1-6 and B16-F10 cells
Assay: AFP promoter-driven NanoLuc reporter and AFP qRT-PCR
Assay type: cell-based, murine
Conditions: AFP-deficient cell lines, 48 h
Method: (A) Quantification of AFP-levels using (left panel) TSP-driven reporter gene expression and (right panel) qRT-PCR. (left panel) N2A, Hepa1-6 and B16-F10 cells were co-transfected with a PMusAFP-driven NanoLuc expression vector (pSLM54) and a constitutive FLuc expression vector (pYW99). Luciferase levels were quantified at 48 h after transfection. Data presented are mean±SD of relative luciferase activity (NanoLuc/FLuc) for n=3 individual experiments. (right panel) Relative AFP expression levels in N2A, Hepa1-6 and B16-F10 cells were profiled by qRT-PCR using murine AFP-specific primers listed in Table S1 and normalized to the gene encoding murine ribosomal protein (Rplp0).
Reverse transcription-polymerase chain reaction (RT-PCR). For quantitative analysis, PCR reaction was carried out with an initial step of 95° C. for 30 s followed by 40 cycles of 95° C. for 10 s and 60° C. for 30 s on the Applied Biosystems QuantStudio 1 Real-Time PCR System (ThermoFisher Scientific) using the ChamQ Universal SYBR qPCR Master Mix (Vazyme Biotech; cat. no. Q711-02) and the primers listed in Table S1. The relative cycle threshold (CT) was determined and normalized against the expression level of endogenous human glyceraldehyde 3-phosphate dehydrogenase (GAPDH) or murine ribosomal protein (Rplp0) genes. […]

B1: PAFP: alpha-fetoprotein (AFP) promoter, model tissue-specific promoter (nucleic acid)
DNA: AGGGGAAATAATCTATTTGAACAGTTTAGATGGTGAAGAACATTTGCAGCATTTGCAAGATTTTTTTCCACTCTGAAGTGGTCTTTGTCCTTGAACATAGGATACAAGTGACCCCTGCTCTGTTAATTATTGGCAAATTGCCTAACTTCAACGTAAGGAAATAGAGTCATATGTTTGCTCACTGAAGGTTACTAGTTAACAGGCATCCCTTAAACAGGATATAAAAGGACTTCAGCAGGACTGCTCGAAACATCCCACTTCCAGCACTGCCTGCGGTGAAGGA
promoter-driven reporter gene expression (NanoLuc/FLuc): non-specific PAFP-driven reporter gene expression
